Patent US20220296736A1, “ADMINISTRATION OF THERAPEUTIC AGENTS TO BRAIN AND OTHER CELLS AND TISSUE” (priority 2019, published 2022)

How the values were obtained:
[1] = mouse, in vivo
Experimental: In the first step, we conjugated BV with DFO chelator and characterized resulting conjugate by means of its molecular weight and binding to vascular endothelial growth factor (VEGF). […] Next day PET-CT imaging was repeated and animals were sacrificed to perform ex vivo biodistribution of ^89ZrBVDFO.
(§1) All animal procedures were carried out under protocols approved by the Johns Hopkins Animal Care and Use Committee. Under general anesthesia with 1-2% isoflurane a catheter was placed in internal carotid artery of C3HeB/FeJ (Jackson, stock No. 000658), male, 6-8 weeks old mice, as we described previously (22) and animal was transferred to the PET-CT scanner. […] A CT scan (512 projections) was performed after dynamic scan for anatomical co-registration. PET/CT imaging was repeated around 24 h post infusion. PET data were reconstructed using the two-dimensional ordered subsets-expectation maximization algorithm (2D-OSEM) and corrected for dead time and radioactive decay. Presented whole body images were generated using Amira® (FEI, Hillsboro, Oreg.) and dynamic scans (brain and heart radioactivity accumulation) and radioactivity distribution in different brain regions were analyzed with PMOD 4.3 (PMOD Technologies LLC, Zurich, Switzerland).

[2] = mouse, in vivo; remark: listed apart in the source
Experimental: In the first step, we conjugated BV with DFO chelator and characterized resulting conjugate by means of its molecular weight and binding to vascular endothelial growth factor (VEGF).
as §1

[3] = mouse, in vivo, iv; cited from earlier work
[4] = human, in vivo, iv; cited from earlier work
[5] = Safety of IA mannitol-induced BBBO in the cortex (MRI and GFAP/IBA1 histology); type: in vivo, SCID mice
Experimental: Once cortical perfusion has been confirmed, 25% mannitol mixed with Gd (50:1) was infused until enhancement indicating BBB breach has been achieved (up to three bolus injections 1-2 min each; interval between infusions is 30 s). For detailed assessment of the BBB status, high resolution T1-weighted scan was collected after mannitol infusion. Three and seven days after OBBBO, the safety of the procedure was evaluated by MRI and then animals were sacrificed for further histological assessment.
For histological evaluation on the safety of OBBBO in the cortex, 7 days after surgery, animals (n=4) were anesthetized and perfused transcardially with 5% sucrose, followed by 4% paraformaldehyde (PFA). The brains were rapidly removed and post-fixed overnight in 4% PFA at 4° C. The brains were cryopreserved in 30% sucrose and 30-μm thick coronal sections were cryosectioned. Immunohistochemistry for anti-GFAP (1:250, Dako) and anti-Iba1 (1:250, Wako) was performed to assess the neuroinflammation. The secondary antibody was goat anti-rabbit (Alexa Fluor-488, 1:200, Molecular Probes). […] All the fluorescent images were acquired using an inverted microscope (Zeiss, Axio Observer Z1).
Data is expressed as mean±SD unless otherwise specified. Quantitation of immunohistochemistry was based on relative fluorescence using Image J and analyzed using a paired t-test. The ratio of ipsi-/contralateral was analyzed using an unpaired t-test. The MRI analysis of the change in area of the Gd perfusion territory and Gd-enhancement for each mouse was calculated using a custom-written script in MATLAB and analyzed using a paired t-test. A p-value less than 0.05 was considered significant.

[6] = Histological assessment of BV biodistribution and extravasation; type: in vivo, SCID mice; conditions: for localisation in brain tissue: one hour after delivery
Experimental: For histological evaluation on the safety of OBBBO in the cortex, 7 days after surgery, animals (n=4) were anesthetized and perfused transcardially with 5% sucrose, followed by 4% paraformaldehyde (PFA). The brains were rapidly removed and post-fixed overnight in 4% PFA at 4° C. The brains were cryopreserved in 30% sucrose and 30-μm thick coronal sections were cryosectioned. Immunohistochemistry for anti-GFAP (1:250, Dako) and anti-Iba1 (1:250, Wako) was performed to assess the neuroinflammation. The secondary antibody was goat anti-rabbit (Alexa Fluor-488, 1:200, Molecular Probes). For detecting the biodistribution of infused BV, the mice with OBBBO (n=4) and without OBBBO (n=3) were sacrificed 1 hour after administration. The brains were cryosectioned at 30 μm and the slices were stained with goat anti-human secondary antibody (Alexa Fluor-488, 1:200, Invitrogen). All the fluorescent images were acquired using an inverted microscope (Zeiss, Axio Observer Z1).
A p-value less than 0.05 was considered significant.

recombinant human VEGF-A = assay: Functional binding assay of BV and BVDFO to VEGF (Bevacizumab ELISA); conditions: unmodified BV versus BVDFO conjugate
Experimental: The ELISA assay devoted for assessment of bevacizumab concentration has been used to assess the binding capacity of unmodified BV and BVDFO conjugate. The assay was carried out using Bevacizumab ELISA (ImmunoGuide, Eagle Bioscience) according to the manufacturer protocol. Briefly, 100 μg/mL, 50 μg/mL, 25 μg/mL of BV and BVDFO, as well as the provided standards were diluted 1:1000, and pipetted in 6 repetitions into the wells of the microtiter plate coated with recombinant human VEGF-A. Plate was incubated for 60 min in the room temperature and washed 3× with buffer. Next, horseradish peroxidase (HRP) conjugated anti-human IgG monoclonal antibody was added to each well, and incubated in room temperature for 30 min. Plate was washed 3× with the buffer and ready-to-use TMB substrate solution was added to each well. After 15 min incubation in dark, stop solution was added to each well and the color change from blue to yellow was observed. The absorbance at 450 nm was read using Victor 3 plate reader (Perkin Elmer) within 10 min after addition of the stop solution and expressed as optical density (OD).

[7] = Intravital 2PM visualization of cortical BBBO and drug extravasation; type: in vivo, SCID mice; conditions: IA infusion with 25% mannitol; 7 ROIs
Experimental: Before microscopy, isoflurane anesthetized mice (n=5) with cranial window and with arterial access as described above were stabilized in a custom-made frame immobilizing their head. The mice were positioned under an epi-fluorescent microscope and a 10× magnification objective was used for capturing images at frequency of 1-2 Hz. Saline solution of 0.001 mM rhodamine (0.58 kDa) was injected using a syringe infusion pump at the rate of 0.15 ml/min over 1 min via the ICA microcatheter to visualize trans-catheter perfusion. When the cortex was not perfused, the cCCA was closed temporarily for 20 s by engaging the weights.
For 2PM to visualize OBBBO and drug penetration, mice were placed under a multiphoton microscope (FV1000MPE, Olympus, Tokyo, Japan). A 10× objective (UPlanSApo, 0.40 NA and 3.1 mm working distance) was centered over the cranial window and used to collect time series images of 800×800 pixels (1.59 μm/pixel; 2 μs/pixel; 100 frames) at an estimated depth of 150 um below the cortical surface. Rhodamine (0.002 mM) mixed with BV-FITC (0.01 mM) was injected prior to OBBBO to collect baseline data and optimize cortical perfusion (temporary cCCA closure). Then, 25% mannitol mixed with rhodamine and BV-FITC was delivered at the rate of 0.15 ml/min for 4 mins in total. […]

recombinant human VEGF-A, sequence (P15692 207-320 limits assumed): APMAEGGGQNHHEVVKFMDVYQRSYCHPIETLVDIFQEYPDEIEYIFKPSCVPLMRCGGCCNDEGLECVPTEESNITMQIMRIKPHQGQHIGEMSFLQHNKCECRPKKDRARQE

89ZrBVDFO: bevacizumab conjugated with on average 3 molecules of DFO chelator and radiolabeled with 89Zr
radioactivity accumulation in contralateral hemisphere [1]: no radioactivity accumulation
signal in the contralateral hemisphere [1]: negligible signal
radioactivity in the entire brain ([1]; iv): 2.91 % ID/cc
clearance from the brain compared with 89ZrNB(DFO)2 [2]: slower
accumulation in the brain and tumors [3]: no accumulation
uptake in diffuse intrinsic pontine glioma [4]: some uptake in five out of seven patients

OC[C@@H](O)[C@@H](O)[C@H](O)[C@H](O)CO [mannitol]
brain damage after cortical BBBO induction (MRI and histology) ([5]; 3 and 7 days after BBBO): did not cause brain damage
astrocytic or microglial activation in the BBBO region (GFAP and IBA-1 staining) ([5]; 7 days post BBBO, ipsilateral versus contralateral): no evidence of astrocytic or microglial activation
brain damage after excessive exposure (T2 hyperintensity) ([5]; continuous 4 min-infusion): led to brain damage

BV: AVASTIN (BV, Roche), bevacizumab, antibody binding VEGF
localisation in brain tissue ([6]; IA delivery with OBBBO): both blood vessels and parenchyma
localisation in brain tissue ([6]; IA delivery with intact BBB (BBBI)): localized within the blood vessels
uptake in ipsilateral vs. contralateral hemisphere (fluorescence intensity) ([6]; both groups (BBBI and OBBBO)): significantly higher uptake

BVDFO: bevacizumab conjugated with p-SCN-Bn-DFO chelator
binding to VEGF (recombinant human VEGF-A): did not affect its targeting properties

rhodamine
extravasation upon BBBO compared to BV-FITC (2PM fluorescence intensity) [7]: earlier onset and higher intensity of extravasation
